Values belong to the binder of their own block, whether it stands above or below them.
Legend:
[1] = molecular target: T1, W614A peptide (HER2 603-622 with W614A) (human); assay: SPR Biacore, mAb on chip, peptide analyte, equilibrium analysis (ka N.D.)
T1 peptide: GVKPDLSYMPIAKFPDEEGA

[2] = molecular target: T2, D607A peptide (HER2 603-622 with D607A) (human); assay: SPR Biacore, mAb on chip, peptide analyte, 1:1 fit;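 further: binding measured at 25 °C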
T2 peptide: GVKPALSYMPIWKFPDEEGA

[3] = molecular target: T3, P606A peptide (HER2 603-622 with P606A) (human); assay: SPR Biacore, mAb on chip, peptide analyte, 1:1 fit;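 further: binding measured at 25 °C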
T3 peptide: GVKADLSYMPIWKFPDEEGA

[4] = molecular target: T4, Y610A peptide (HER2 603-622 with Y610A) (human); assay: SPR Biacore, mAb on chip, peptide analyte, 1:1 fit;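 further: binding measured at 25 °C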
T4 peptide: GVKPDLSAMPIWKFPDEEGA

[5] = molecular target: T5, L608A peptide (HER2 603-622 with L608A) (human); assay: SPR Biacore, mAb on chip, peptide analyte, 1:1 fit;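 further: binding measured at 25 °C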
T5 peptide: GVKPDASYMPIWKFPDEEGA

[6] = molecular target: T6, HER2 peptide p603-622 (amino acids 603 to 622 of human HER2) (human); assay: SPR Biacore, mAb on chip, peptide analyte, 1:1 fit;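 further: binding measured at 25 °C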
T6 construct: Synthetic peptide; also called wild-type HER2 peptide
T6 peptide: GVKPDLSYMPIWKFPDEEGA

[7] = molecular target: T7, S609A peptide (HER2 603-622 with S609A) (human); assay: SPR Biacore, mAb on chip, peptide analyte, 1:1 fit;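 further: binding measured at 25 °C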
T7 peptide: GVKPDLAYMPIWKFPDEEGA

[8] = molecular target: T8, A622G peptide (HER2 603-622 with A622G) (human); assay: SPR Biacore, mAb on chip, peptide analyte, 1:1 fit
T8 peptide: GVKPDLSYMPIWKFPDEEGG

[9] = molecular target: T9, P612A peptide (HER2 603-622 with P612A) (human); assay: SPR Biacore, mAb on chip, peptide analyte, 1:1 fit
T9 peptide: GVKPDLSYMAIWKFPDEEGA

[10] = molecular target: T10, G603A peptide (HER2 603-622 with G603A) (human); assay: SPR Biacore, mAb on chip, peptide analyte, 1:1 fit
T10 peptide: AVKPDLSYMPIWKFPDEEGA

[11] = molecular target: T11, K605A peptide (HER2 603-622 with K605A) (human); assay: SPR Biacore, mAb on chip, peptide analyte, 1:1 fit
T11 peptide: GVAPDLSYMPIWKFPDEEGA

[12] = molecular target: T12, M611A peptide (HER2 603-622 with M611A) (human); assay: SPR Biacore, mAb on chip, peptide analyte, 1:1 fit
T12 peptide: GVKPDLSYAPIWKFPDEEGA

[13] = molecular target: T13, D618A peptide (HER2 603-622 with D618A) (human); assay: SPR Biacore, mAb on chip, peptide analyte, 1:1 fit
T13 peptide: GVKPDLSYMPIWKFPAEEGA

[14] = molecular target: T14, P617A peptide (HER2 603-622 with P617A) (human); assay: SPR Biacore, mAb on chip, peptide analyte, 1:1 fit
T14 peptide: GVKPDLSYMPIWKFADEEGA

Kd [1]: 1050 µM
B1: H2Mab-250 antibody (antibody, V domains shown)
VH: EVQLVESGGGLVQPGGSLKLSCAASGFTFSNYGMSWVRQTPDRRLELVATINNNGGGTYYPDSVKGRFTISRDNAKNTLYLQMSSLKSEDTAMYYCTSPGLLWDAWGAGTTVTVSS
VL: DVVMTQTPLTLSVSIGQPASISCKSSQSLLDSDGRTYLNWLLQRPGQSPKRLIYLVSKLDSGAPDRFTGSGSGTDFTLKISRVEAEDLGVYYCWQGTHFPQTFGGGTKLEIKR
notes: Mouse monoclonal from a hybridoma (immunogen HER2ec made in LN229 cells); also called antibody of the present invention

Kd [2]: 0.0176 µM
koff [2]: 0.00588 s⁻¹
kon [2]: 334000 M⁻¹ s⁻¹
Kd [3]: 0.0176 µM
koff [3]: 0.00578 s⁻¹
kon [3]: 329000 M⁻¹ s⁻¹
Kd [4]: 0.0267 µM
koff [4]: 0.00603 s⁻¹
kon [4]: 226000 M⁻¹ s⁻¹
Kd [5]: 0.0487 µM
koff [5]: 0.00739 s⁻¹
kon [5]: 152000 M⁻¹ s⁻¹
Kd [6]: 0.0228 µM
koff [6]: 0.00543 s⁻¹
kon [6]: 238000 M⁻¹ s⁻¹
Kd [7]: 0.0332 µM
koff [7]: 0.00659 s⁻¹
kon [7]: 199000 M⁻¹ s⁻¹
Kd [8]: 0.0155 µM
koff [8]: 0.00567 s⁻¹
kon [8]: 366000 M⁻¹ s⁻¹
Kd [9]: 0.0468 µM
koff [9]: 0.0125 s⁻¹
kon [9]: 267000 M⁻¹ s⁻¹
Kd [10]: 0.0169 µM
koff [10]: 0.00564 s⁻¹
kon [10]: 335000 M⁻¹ s⁻¹
Kd [11]: 0.0265 µM
koff [11]: 0.00643 s⁻¹
kon [11]: 243000 M⁻¹ s⁻¹
Kd [12]: 0.0341 µM
koff [12]: 0.00774 s⁻¹
kon [12]: 227000 M⁻¹ s⁻¹
Kd [13]: 0.0491 µM
koff [13]: 0.0125 s⁻¹
kon [13]: 254000 M⁻¹ s⁻¹
Kd [14]: 0.0439 µM
koff [14]: 0.00716 s⁻¹
kon [14]: 163000 M⁻¹ s⁻¹
B2: H2Mab-214 antibody (antibody, V domains shown)
VH: QVTLKESGPGILQPSQTLSLTCSFSGFSLSTSGMGVSWIRQPSGKGLEWLAHIFWDDDKRYNPSLKSRLTISKDTSRNKVFLKITSVDTADTATYYCARRVVATDWYFDVWGAGTTVTVSS
VL: DIVLTQSPASLAVSLGQRATISCRASESVEYYGTTLMQWYQQKPGQPPKLLIYAASKVESGVPARFSGSGSGTDFSLNIHPVEEDDVAMYFCQQSRKVPLTFGAGTKLELKR
notes: as for B1
